According to IntAct's records for PubMed 31515488:

B1: LIM/homeobox protein Lhx4 (Homo sapiens), Q969G2 (parent)
chain: MMQSATVPAEGAVKGLPEMLGVPMQQIPQCAGCNQHILDKFILKVLDRHWHSSCLKCADCQMQLADRCFSRAGSVYCKEDFFKRFGTKCTACQQGIPPTQVVRKAQDFVYHLHCFACIICNRQLATGDEFYLMEDGRLVCKEDYETAKQNDDSEAGAKRPRTTITAKQLETLKNAYKNSPKPARHVREQLSSETGLDMRVVQVWFQNRRAKEKRLKKDAGRHRWGQFYKSVKRSRGSSKQEKESSAEDCGVSDSELSFREDQILSELGHTNRIYGNVGDVTGGQLMNGSFSMDGTGQSYQDLRDGSPYGIPQSPSSISSLPSHAPLLNGLDYTVDSNLGIIAHAGQGVSQTLRAMAGGPTSDISTGSSVGYPDFPTSPGSWLDEMDHPPF
partner: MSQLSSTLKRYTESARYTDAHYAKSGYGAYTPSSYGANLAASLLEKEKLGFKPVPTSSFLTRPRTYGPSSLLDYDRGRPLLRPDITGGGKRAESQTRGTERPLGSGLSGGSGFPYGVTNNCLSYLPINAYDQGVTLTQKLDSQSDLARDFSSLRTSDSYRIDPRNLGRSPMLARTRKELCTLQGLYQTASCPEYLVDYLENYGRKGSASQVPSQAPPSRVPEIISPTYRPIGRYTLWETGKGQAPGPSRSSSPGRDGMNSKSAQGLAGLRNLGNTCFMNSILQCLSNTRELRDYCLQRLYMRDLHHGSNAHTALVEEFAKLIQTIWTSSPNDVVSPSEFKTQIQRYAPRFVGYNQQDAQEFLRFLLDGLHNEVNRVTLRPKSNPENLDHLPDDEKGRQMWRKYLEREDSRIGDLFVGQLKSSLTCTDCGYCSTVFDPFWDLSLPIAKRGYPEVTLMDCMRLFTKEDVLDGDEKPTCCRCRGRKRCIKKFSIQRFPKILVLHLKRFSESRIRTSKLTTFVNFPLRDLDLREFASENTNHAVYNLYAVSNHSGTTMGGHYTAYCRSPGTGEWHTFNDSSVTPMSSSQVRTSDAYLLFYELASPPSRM
B2: Peroxisomal biogenesis factor 3 (Homo sapiens), P56589 (parent)
chain: MLRSVWNFLKRHKKKCIFLGTVLGGVYILGKYGQKKIREIQEREAAEYIAQARRQYHFESNQRTCNMTVLSMLPTLREALMQQLNSESLTALLKNRPSNKLEIWEDLKIISFTRSTVAVYSTCMLVVLLRVQLNIIGGYIYLDNAAVGKNGTTILAPPDVQQQYLSSIQHLLGDGLTELITVIKQAVQKVLGSVSLKHSLSLLDLEQKLKEIRNLVEQHKSSSWINKDGSKPLLCHYMMPDEETPLAVQACGLSPRDITTIKLLNETRDMLESPDFSTVLNTCLNRGFSRLLDNMAEFFRPTEQDLQHGNSMNSLSSVSLPLAKIIPIVNGQIHSVCSETPSHFVQDLLTMEQVKDFAANVYEAFSTPQQLEK
partner: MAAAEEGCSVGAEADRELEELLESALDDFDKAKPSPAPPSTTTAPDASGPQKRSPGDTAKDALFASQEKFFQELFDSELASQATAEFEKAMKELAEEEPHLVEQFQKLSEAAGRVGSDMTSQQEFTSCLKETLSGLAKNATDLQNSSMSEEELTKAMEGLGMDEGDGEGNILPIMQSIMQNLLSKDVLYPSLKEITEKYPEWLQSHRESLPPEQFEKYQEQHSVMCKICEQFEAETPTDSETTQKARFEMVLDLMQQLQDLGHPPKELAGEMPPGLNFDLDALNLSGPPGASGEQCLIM
B3: Tuftelin-interacting protein 11 (Homo sapiens), Q9UBB9 (parent)
chain: MSLSHLYRDGEGRIDDDDDERENFEITDWDLQNEFNPNRQRHWQTKEEATYGVWAERDSDDERPSFGGKRARDYSAPVNFISAGLKKGAAEEAELEDSDDEEKPVKQDDFPKDFGPRKLKTGGNFKPSQKGFAGGTKSFMDFGSWERHTKGIGQKLLQKMGYVPGRGLGKNAQGIINPIEAKQRKGKGAVGAYGSERTTQSMQDFPVVDSEEEAEEEFQKELSQWRKDPSGSKKKPKYSYKTVEELKAKGRISKKLTAPQKELSQVKVIDMTGREQKVYYSYSQISHKHNVPDDGLPLQSQQLPQSGKEAKAPGFALPELEHNLQLLIDLTEQEIIQNDRQLQYERDMVVNLFHELEKMTEVLDHEERVISNLSKVLEMVEECERRMQPDCSNPLTLDECARIFETLQDKYYEEYRMSDRVDLAVAIVYPLMKEYFKEWDPLKDCTYGTEIISKWKSLLENDQLLSHGGQDLSADAFHRLIWEVWMPFVRNIVTQWQPRNCDPMVDFLDSWVHIIPVWILDNILDQLIFPKLQKEVENWNPLTDTVPIHSWIHPWLPLMQARLEPLYSPIRSKLSSALQKWHPSDSSAKLILQPWKDVFTPGSWEAFMVKNIVPKLGMCLGELVINPHQQHMDAFYWVIDWEGMISVSSLVGLLEKHFFPKWLQVLCSWLSNSPNYEEITKWYLGWKSMFSDQVLAHPSVKDKFNEALDIMNRAVSSNVGAYMQPGARENIAYLTHTERRKDFQYEAMQERREAENMAQRGIGVAASSVPMNFKDLIETKAEEHNIVFMPVIGKRHEGKQLYTFGRIVIYIDRGVVFVQGEKTWVPTSLQSLIDMAK
partner: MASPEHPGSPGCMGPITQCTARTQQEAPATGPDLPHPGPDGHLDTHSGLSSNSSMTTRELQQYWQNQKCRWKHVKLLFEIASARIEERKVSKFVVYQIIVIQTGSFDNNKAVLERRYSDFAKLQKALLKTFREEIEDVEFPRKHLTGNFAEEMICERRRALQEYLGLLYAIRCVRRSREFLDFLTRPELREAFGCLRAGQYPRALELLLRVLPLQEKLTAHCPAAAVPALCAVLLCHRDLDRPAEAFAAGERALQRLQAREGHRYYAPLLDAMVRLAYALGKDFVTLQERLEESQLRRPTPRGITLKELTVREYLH
B4: Tyrosine-protein phosphatase non-receptor type 9 (Homo sapiens), P43378 (parent)
chain: MEPATAPRPDMAPELTPEEEQATKQFLEEINKWTVQYNVSPLSWNVAVKFLMARKFDVLRAIELFHSYRETRRKEGIVKLKPHEEPLRSEILSGKFTILNVRDPTGASIALFTARLHHPHKSVQHVVLQALFYLLDRAVDSFETQRNGLVFIYDMCGSNYANFELDLGKKVLNLLKGAFPARLKKVLIVGAPIWFRVPYSIISLLLKDKVRERIQILKTSEVTQHLPRECLPENLGGYVKIDLATWNFQFLPQVNGHPDPFDEIILFSLPPALDWDSVHVPGPHAMTIQELVDYVNARQKQGIYEEYEDIRRENPVGTFHCSMSPGNLEKNRYGDVPCLDQTRVKLTKRSGHTQTDYINASFMDGYKQKNAYIGTQGPLENTYRDFWLMVWEQKVLVIVMTTRFEEGGRRKCGQYWPLEKDSRIRFGFLTVTNLGVENMNHYKKTTLEIHNTEERQKRQVTHFQFLSWPDYGVPSSAASLIDFLRVVRNQQSLAVSNMGARSKGQCPEPPIVVHCSAGIGRTGTFCSLDICLAQLEELGTLNVFQTVSRMRTQRAFSIQTPEQYYFCYKAILEFAEKEGMVSSGQNLLAVESQ
B5: Coiled-coil domain-containing protein 74A (Homo sapiens), Q96AQ1 (parent)
chain: MSGAGVAAGTRPPSSPTPGSRRRRQRPSVGVQSLRPQSPQLRQSDPQKRNLDLEKSLQFLQQQHSEMLAKLHEEIEHLKRENKDLHYKLIMNQTSQKKDGPSGNHLSRASAPLGARWVCINGVWVEPGGPSPARLKEGSSRTHRPGGKRGRLAGGSADTVRSPADSLSMSSFQSVKSISNSGKARPQPGSFNKQDSKADVSQKADLEEEPLLHNSKLDKVPGVQGQARKEKAEASNAGAACMGNSQHQGRQMGAGAHPPMILPLPLRKPTTLRQCEVLIRELWNTNLLQTQELRHLKSLLEGSQRPQAAPEEASFPRDQEATHFPKVSTKSLSKKCLSPPVAERAILPALKQTPKNNFAERQKRLQAMQKRRLHRSVL
B6: Peroxisomal bifunctional enzyme (Homo sapiens), Q08426 (parent)
chain: MAEYTRLHNALALIRLRNPPVNAISTTLLRDIKEGLQKAVIDHTIKAIVICGAEGKFSAGADIRGFSAPRTFGLTLGHVVDEIQRNEKPVVAAIQGMAFGGGLELALGCHYRIAHAEAQVGLPEVTLGLLPGARGTQLLPRLTGVPAALDLITSGRRILADEALKLGILDKVVNSDPVEEAIRFAQRVSDQPLESRRLCNKPIQSLPNMDSIFSEALLKMRRQHPGCLAQEACVRAVQAAVQYPYEVGIKKEEELFLYLLQSGQARALQYAFFAERKANKWSTPSGASWKTASARPVSSVGVVGLGTMGRGIVISFARARIPVIAVDSDKNQLATANKMITSVLEKEASKMQQSGHPWSGPKPRLTSSVKELGGVDLVIEAVFEEMSLKKQVFAELSAVCKPEAFLCTNTSALDVDEIASSTDRPHLVIGTHFFSPAHVMKLLEVIPSQYSSPTTIATVMNLSKKIKKIGVVVGNCFGFVGNRMLNPYYNQAYFLLEEGSKPEEVDQVLEEFGFKMGPFRVSDLAGLDVGWKSRKGQGLTGPTLLPGTPARKRGNRRYCPIPDVLCELGRFGQKTGKGWYQYDKPLGRIHKPDPWLSKFLSRYRKTHHIEPRTISQDEILERCLYSLINEAFRILGEGIAASPEHIDVVYLHGYGWPRHKGGPMFYASTVGLPTVLEKLQKYYRQNPDIPQLEPSDYLKKLASQGNPPLKEWQSLAGSPSSKL
partner: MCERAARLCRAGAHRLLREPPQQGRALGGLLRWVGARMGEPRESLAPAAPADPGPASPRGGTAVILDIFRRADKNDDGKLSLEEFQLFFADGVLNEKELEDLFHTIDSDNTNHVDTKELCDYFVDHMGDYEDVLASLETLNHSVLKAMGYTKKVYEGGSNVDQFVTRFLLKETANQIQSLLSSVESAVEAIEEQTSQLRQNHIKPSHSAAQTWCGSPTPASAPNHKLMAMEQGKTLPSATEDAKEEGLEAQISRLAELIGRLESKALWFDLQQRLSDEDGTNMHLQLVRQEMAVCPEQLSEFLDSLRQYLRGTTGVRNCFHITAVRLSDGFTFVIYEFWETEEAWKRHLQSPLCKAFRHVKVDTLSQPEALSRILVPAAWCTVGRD

Variants of: B1
Details: with ubp2_human USP2, O75604

Row | effect of a mutation on the interaction | Variant
1 | with no effect | N328S

Variants of: B2
Details: with pex19_human PEX19, P40855

Row | effect of a mutation on the interaction | Variant
2 | with no effect | D347Y
3 | with no effect | Q82R

Variants of: B3
Details: with snx20_human SNX20, Q7Z614

Row | effect of a mutation on the interaction | Variant
4 | with no effect | S688L
5 | with no effect | R8Q

Variants of: B4
Details: with mal2_human MAL2, Q969L2
Sequence of mal2_human MAL2, Q969L2 (Q969L2 whole entry): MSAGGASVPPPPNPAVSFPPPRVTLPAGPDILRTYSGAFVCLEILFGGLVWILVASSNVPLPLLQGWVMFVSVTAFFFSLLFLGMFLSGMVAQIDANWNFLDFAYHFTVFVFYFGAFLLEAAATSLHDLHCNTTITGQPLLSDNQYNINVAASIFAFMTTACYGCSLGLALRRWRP

Row | effect of a mutation on the interaction | Variant
6 | disrupting interaction strength | R72Q

Variants of: B4
Details: with rtn3_human RTN3, O95197
Sequence of rtn3_human RTN3, O95197 (O95197 whole entry): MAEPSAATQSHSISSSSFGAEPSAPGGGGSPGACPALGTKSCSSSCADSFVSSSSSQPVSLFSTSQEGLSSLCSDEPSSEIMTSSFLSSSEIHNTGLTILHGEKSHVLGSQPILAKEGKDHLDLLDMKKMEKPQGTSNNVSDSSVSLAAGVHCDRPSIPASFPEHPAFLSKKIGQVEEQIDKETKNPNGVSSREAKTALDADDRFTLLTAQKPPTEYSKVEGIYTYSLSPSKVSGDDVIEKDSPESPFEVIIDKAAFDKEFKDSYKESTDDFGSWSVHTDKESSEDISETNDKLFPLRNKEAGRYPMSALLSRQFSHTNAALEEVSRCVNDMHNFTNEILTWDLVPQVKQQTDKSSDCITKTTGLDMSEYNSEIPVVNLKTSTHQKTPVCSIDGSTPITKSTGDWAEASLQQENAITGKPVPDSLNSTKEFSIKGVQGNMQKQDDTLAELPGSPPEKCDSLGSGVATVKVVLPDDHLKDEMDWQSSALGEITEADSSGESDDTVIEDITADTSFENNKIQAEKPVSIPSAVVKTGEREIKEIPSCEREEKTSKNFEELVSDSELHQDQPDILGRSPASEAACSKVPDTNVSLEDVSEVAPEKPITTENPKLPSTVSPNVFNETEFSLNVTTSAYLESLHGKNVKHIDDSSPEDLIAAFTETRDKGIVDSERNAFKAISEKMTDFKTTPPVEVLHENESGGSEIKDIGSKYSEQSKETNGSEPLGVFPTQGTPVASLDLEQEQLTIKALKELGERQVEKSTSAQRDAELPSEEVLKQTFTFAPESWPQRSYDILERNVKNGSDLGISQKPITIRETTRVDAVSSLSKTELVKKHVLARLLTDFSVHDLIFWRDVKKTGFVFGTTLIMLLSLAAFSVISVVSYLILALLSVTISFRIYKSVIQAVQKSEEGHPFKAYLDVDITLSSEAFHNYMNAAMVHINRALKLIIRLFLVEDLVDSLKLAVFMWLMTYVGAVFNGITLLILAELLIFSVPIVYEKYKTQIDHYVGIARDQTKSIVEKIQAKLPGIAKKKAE

Row | effect of a mutation on the interaction | Variant
7 | with no effect | R72Q

Variants of: B4
Details: with atrap_human AGTRAP

Row | effect of a mutation on the interaction | Variant
8 | with no effect | R72Q

Variants of: B5
Details: with mtus2_human MTUS2, Q5JR59
Sequence of mtus2_human MTUS2, Q5JR59 (Q5JR59 whole entry): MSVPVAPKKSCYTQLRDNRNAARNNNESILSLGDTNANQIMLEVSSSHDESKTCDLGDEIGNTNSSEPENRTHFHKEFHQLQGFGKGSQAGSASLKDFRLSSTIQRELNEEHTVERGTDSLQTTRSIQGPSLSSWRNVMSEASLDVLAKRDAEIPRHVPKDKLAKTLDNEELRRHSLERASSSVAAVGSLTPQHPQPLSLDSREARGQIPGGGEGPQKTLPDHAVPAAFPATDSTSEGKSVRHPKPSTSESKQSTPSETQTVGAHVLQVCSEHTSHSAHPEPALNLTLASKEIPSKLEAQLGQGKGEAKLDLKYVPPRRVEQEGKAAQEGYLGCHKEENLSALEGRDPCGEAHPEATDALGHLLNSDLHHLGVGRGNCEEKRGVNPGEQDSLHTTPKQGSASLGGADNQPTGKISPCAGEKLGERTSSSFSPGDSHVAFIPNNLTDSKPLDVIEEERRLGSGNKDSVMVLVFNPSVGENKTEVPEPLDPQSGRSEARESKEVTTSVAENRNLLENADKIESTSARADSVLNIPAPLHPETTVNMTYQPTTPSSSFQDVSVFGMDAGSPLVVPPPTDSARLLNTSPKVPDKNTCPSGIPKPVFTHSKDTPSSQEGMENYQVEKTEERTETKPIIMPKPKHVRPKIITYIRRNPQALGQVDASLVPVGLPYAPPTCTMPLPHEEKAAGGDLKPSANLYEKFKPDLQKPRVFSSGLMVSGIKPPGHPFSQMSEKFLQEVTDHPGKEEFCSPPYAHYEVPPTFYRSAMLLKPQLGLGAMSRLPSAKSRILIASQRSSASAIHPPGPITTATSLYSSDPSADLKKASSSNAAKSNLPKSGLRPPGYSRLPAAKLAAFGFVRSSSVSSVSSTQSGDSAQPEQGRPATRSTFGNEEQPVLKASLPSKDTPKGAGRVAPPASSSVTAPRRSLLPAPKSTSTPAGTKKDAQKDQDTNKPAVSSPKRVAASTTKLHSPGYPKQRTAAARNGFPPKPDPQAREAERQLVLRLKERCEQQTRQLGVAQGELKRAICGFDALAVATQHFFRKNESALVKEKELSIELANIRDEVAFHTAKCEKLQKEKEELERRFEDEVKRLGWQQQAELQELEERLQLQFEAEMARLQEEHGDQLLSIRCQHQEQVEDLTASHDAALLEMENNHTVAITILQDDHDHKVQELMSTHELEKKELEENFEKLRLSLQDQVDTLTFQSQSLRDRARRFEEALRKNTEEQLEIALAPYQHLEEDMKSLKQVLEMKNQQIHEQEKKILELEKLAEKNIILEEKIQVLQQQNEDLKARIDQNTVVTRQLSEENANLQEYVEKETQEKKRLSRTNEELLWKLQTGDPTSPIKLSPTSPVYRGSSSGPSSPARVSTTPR

Row | effect of a mutation on the interaction | Variant
9 | with no effect | G302R

Variants of: B6
Details: with neca2_human NECAB2, Q7Z6G3

Row | effect of a mutation on the interaction | Variant
10 | disrupting interaction strength | R483Q
11 | disrupting interaction strength | I646T
12 | disrupting interaction strength | L715S
